# Where no end group is shown, it is not given here. [ ]: non-standard residue; d: D form. Tle = CC(C)(C)[C@H](N)C(=O)O; Ac6c = NC1(C(=O)O)CCCCC1; cyHex = not defined here; cyPen = not defined here; Ac5c = NC1(C(=O)O)CCCC1; Sar = CNCC(=O)O
# T1: human angiotensin 2 type 1 receptor (human, UniProt P30556 1-359)
# T1 sequence (looked up): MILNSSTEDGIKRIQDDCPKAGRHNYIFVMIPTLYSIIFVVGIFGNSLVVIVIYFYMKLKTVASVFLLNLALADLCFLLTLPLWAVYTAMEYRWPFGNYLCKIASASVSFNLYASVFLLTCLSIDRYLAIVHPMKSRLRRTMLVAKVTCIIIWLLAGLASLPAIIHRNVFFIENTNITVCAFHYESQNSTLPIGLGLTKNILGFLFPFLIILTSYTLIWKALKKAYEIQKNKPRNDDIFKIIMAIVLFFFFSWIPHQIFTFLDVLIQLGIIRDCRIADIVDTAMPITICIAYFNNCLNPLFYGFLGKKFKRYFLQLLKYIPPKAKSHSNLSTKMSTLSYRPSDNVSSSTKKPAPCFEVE
# T2: rat angiotensin 2 type 1 receptor (rat, UniProt P25095 1-359)
# T2 sequence (looked up): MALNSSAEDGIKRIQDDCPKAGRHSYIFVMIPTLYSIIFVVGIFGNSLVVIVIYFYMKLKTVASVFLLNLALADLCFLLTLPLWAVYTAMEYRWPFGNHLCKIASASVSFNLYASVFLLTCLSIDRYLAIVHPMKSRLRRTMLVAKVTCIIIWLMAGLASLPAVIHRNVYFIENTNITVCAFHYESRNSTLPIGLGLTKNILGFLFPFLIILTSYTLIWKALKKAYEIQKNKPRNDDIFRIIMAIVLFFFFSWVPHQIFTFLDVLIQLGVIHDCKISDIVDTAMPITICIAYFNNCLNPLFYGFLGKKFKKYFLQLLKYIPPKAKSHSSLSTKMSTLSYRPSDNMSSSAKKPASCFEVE
# Target: T1, human angiotensin 2 type 1 receptor
# Assay: cell-based or functional assay
beta-arrestin2 assay EC50,beta-arrestin2 assay Span,beta-arrestin2 assay pEC50,Binder
> 3.2 nM,< 101,< 8.5,[Sar]RVYPHP[dA] [SEQ ID NO: 60 (Sar-Arg-Val-Tyr-Pro-His-Pro-D-Ala)]
> 3.2 nM,< 101,< 8.5,[Sar]RVY[Ac6c]HPP [SEQ ID NO: 39 (Sar-Arg-Val-Tyr-cyHex-His-Pro-Pro)]
> 3.2 nM,< 101,< 8.5,[Sar]RVY[Ac6c]HP[Tle] [SEQ ID NO: 56 (Sar-Arg-Val-Tyr-cyHex-His-Pro-AA02)]
> 3.2 nM,< 101,< 8.5,[Sar]RVY[Ac6c]HPW [SEQ ID NO: 54 (Sar-Arg-Val-Tyr-cyHex-His-Pro-Trp)]

# The remaining lines, values behind:
Binder,beta-arrestin2 assay EC50,beta-arrestin2 assay Span,beta-arrestin2 assay pEC50
[Sar]RVY[Ac5c]HPT [SEQ ID NO: 21 (Sar-Arg-Val-Tyr-cyPen-His-Pro-Thr)],> 3.2 nM,< 101,< 8.5
[Sar]RVY[Ac5c]HPV [SEQ ID NO: 20 (Sar-Arg-Val-Tyr-cyPen-His-Pro-Val)],> 3.2 nM,< 101,< 8.5
[Sar]RVY[Ac5c]HPL [SEQ ID NO: 19 (Sar-Arg-Val-Tyr-cyPen-His-Pro-Leu)],> 3.2 nM,< 101,< 8.5
[Sar]RVY[cyPen]HPA (reading uncertain; also: printed as Sar-Arg-Val-Tyr-cyPen-His-Pro-Ala) [SEQ ID NO: 3 (Sar-Arg-Val-Tyr-cyPen-His-Pro-Ala)],–,< 101,–
[Sar]RVY[cyHex]HPA (reading uncertain; also: printed as Sar-Arg-Val-Tyr-cyHex-His-Pro-Ala) [SEQ ID NO: 2 (Sar-Arg-Val-Tyr-cyHex-His-Pro-Ala)],–,< 101,–

# Target: T2, rat angiotensin 2 type 1 receptor
# Assay: cell-based or functional assay
beta-arrestin2 assay EC50,beta-arrestin2 assay Span,beta-arrestin2 assay pEC50,Binder
> 3.2 nM,< 105,< 8.5,[Sar]RVYPHP[dA] [SEQ ID NO: 60 (Sar-Arg-Val-Tyr-Pro-His-Pro-D-Ala)]
> 3.2 nM,< 105,< 8.5,[Sar]RVY[Ac6c]HPP [SEQ ID NO: 39 (Sar-Arg-Val-Tyr-cyHex-His-Pro-Pro)]
> 3.2 nM,< 105,< 8.5,[Sar]RVY[Ac6c]HP[Tle] [SEQ ID NO: 56 (Sar-Arg-Val-Tyr-cyHex-His-Pro-AA02)]
> 3.2 nM,< 105,< 8.5,[Sar]RVY[Ac6c]HPW [SEQ ID NO: 54 (Sar-Arg-Val-Tyr-cyHex-His-Pro-Trp)]

# More lines, now with the values behind:
Binder,beta-arrestin2 assay EC50,beta-arrestin2 assay Span,beta-arrestin2 assay pEC50
[Sar]RVY[Ac5c]HPT [SEQ ID NO: 21 (Sar-Arg-Val-Tyr-cyPen-His-Pro-Thr)],> 3.2 nM,< 105,< 8.5
[Sar]RVY[Ac5c]HPV [SEQ ID NO: 20 (Sar-Arg-Val-Tyr-cyPen-His-Pro-Val)],> 3.2 nM,< 105,< 8.5
[Sar]RVY[Ac5c]HPL [SEQ ID NO: 19 (Sar-Arg-Val-Tyr-cyPen-His-Pro-Leu)],> 3.2 nM,< 105,< 8.5
[Sar]RVY[cyPen]HPA (reading uncertain; also: printed as Sar-Arg-Val-Tyr-cyPen-His-Pro-Ala) [SEQ ID NO: 3 (Sar-Arg-Val-Tyr-cyPen-His-Pro-Ala)],–,< 105,–
[Sar]RVY[cyHex]HPA (reading uncertain; also: printed as Sar-Arg-Val-Tyr-cyHex-His-Pro-Ala) [SEQ ID NO: 2 (Sar-Arg-Val-Tyr-cyHex-His-Pro-Ala)],–,< 105,–

# Target: T1, human angiotensin 2 type 1 receptor
# Assay: cell-based or functional assay
# Remark: another data set of the same source
IP1 G-protein assay EC50,IP1 G-protein assay pEC50,IP1 G-protein assay Span,Binder
> 1.3 nM,< 9.2,< 103,[Sar]RVYPHP[dA] [SEQ ID NO: 60 (Sar-Arg-Val-Tyr-Pro-His-Pro-D-Ala)]
> 1.3 nM,< 9.2,< 103,[Sar]RVY[Ac6c]HPP [SEQ ID NO: 39 (Sar-Arg-Val-Tyr-cyHex-His-Pro-Pro)]
> 1.3 nM,< 9.2,< 103,[Sar]RVY[Ac6c]HP[Tle] [SEQ ID NO: 56 (Sar-Arg-Val-Tyr-cyHex-His-Pro-AA02)]
> 1.3 nM,< 9.2,< 103,[Sar]RVY[Ac6c]HPW [SEQ ID NO: 54 (Sar-Arg-Val-Tyr-cyHex-His-Pro-Trp)]

# Second part, the binder before the results:
Binder,IP1 G-protein assay EC50,IP1 G-protein assay pEC50,IP1 G-protein assay Span
[Sar]RVY[Ac5c]HPT [SEQ ID NO: 21 (Sar-Arg-Val-Tyr-cyPen-His-Pro-Thr)],> 1.3 nM,> 9.2,–
[Sar]RVY[Ac5c]HPV [SEQ ID NO: 20 (Sar-Arg-Val-Tyr-cyPen-His-Pro-Val)],> 1.3 nM,< 9.2,< 103
[Sar]RVY[Ac5c]HPL [SEQ ID NO: 19 (Sar-Arg-Val-Tyr-cyPen-His-Pro-Leu)],> 1.3 nM,< 9.2,< 103
[Sar]RVY[cyPen]HPA (reading uncertain; also: printed as Sar-Arg-Val-Tyr-cyPen-His-Pro-Ala) [SEQ ID NO: 3 (Sar-Arg-Val-Tyr-cyPen-His-Pro-Ala)],> 10000 nM,> 9.2,–
[Sar]RVY[cyHex]HPA (reading uncertain; also: printed as Sar-Arg-Val-Tyr-cyHex-His-Pro-Ala) [SEQ ID NO: 2 (Sar-Arg-Val-Tyr-cyHex-His-Pro-Ala)],–,< 9.2,< 103

# Target: T2, rat angiotensin 2 type 1 receptor
# Assay: cell-based or functional assay
# Remark: another data set of the same source
IP1 G-protein assay EC50,IP1 G-protein assay Span,IP1 G-protein assay pEC50,Binder
> 0.6 nM,< 104,< 9.2,[Sar]RVYPHP[dA] [SEQ ID NO: 60 (Sar-Arg-Val-Tyr-Pro-His-Pro-D-Ala)]
> 0.6 nM,< 104,< 9.2,[Sar]RVY[Ac6c]HPP [SEQ ID NO: 39 (Sar-Arg-Val-Tyr-cyHex-His-Pro-Pro)]
> 0.6 nM,< 104,< 9.2,[Sar]RVY[Ac6c]HP[Tle] [SEQ ID NO: 56 (Sar-Arg-Val-Tyr-cyHex-His-Pro-AA02)]
> 0.6 nM,< 104,< 9.2,[Sar]RVY[Ac6c]HPW [SEQ ID NO: 54 (Sar-Arg-Val-Tyr-cyHex-His-Pro-Trp)]

# Second part, the binder before the results:
Binder,IP1 G-protein assay EC50,IP1 G-protein assay Span,IP1 G-protein assay pEC50
[Sar]RVY[Ac5c]HPT [SEQ ID NO: 21 (Sar-Arg-Val-Tyr-cyPen-His-Pro-Thr)],> 0.6 nM,< 104,< 9.2
[Sar]RVY[Ac5c]HPV [SEQ ID NO: 20 (Sar-Arg-Val-Tyr-cyPen-His-Pro-Val)],> 0.6 nM,< 104,< 9.2
[Sar]RVY[Ac5c]HPL [SEQ ID NO: 19 (Sar-Arg-Val-Tyr-cyPen-His-Pro-Leu)],> 0.6 nM,–,> 9.2
[Sar]RVY[cyPen]HPA (reading uncertain; also: printed as Sar-Arg-Val-Tyr-cyPen-His-Pro-Ala) [SEQ ID NO: 3 (Sar-Arg-Val-Tyr-cyPen-His-Pro-Ala)],> 0.6 nM,–,> 9.2
[Sar]RVY[cyHex]HPA (reading uncertain; also: printed as Sar-Arg-Val-Tyr-cyHex-His-Pro-Ala) [SEQ ID NO: 2 (Sar-Arg-Val-Tyr-cyHex-His-Pro-Ala)],> 0.6 nM,–,> 9.2

# From US20150105316A1 (TREVENA, published 2015)
